{"source": "paper PMC11423973", "about": "(2024)", "target": "SFTSV Gn head domain (Severe fever with thrombocytopenia …)", "assay": "BLI"}
{"binder": "c40C10 (human IgG1 antibody with the heavy and light chain variable regions of mAb 40C10) (antibody, V domains shown) VH: EVQLQQSGAELVKPGASVKLSCKASGYTFTSHYMYWVKQRPGQGPEWIGEINPTNGGTKFNEKFKSKATLTVDKSSSTAYIQLSSLTSEDSAVYYCSSSGYDYDGRAYFDYWGQGTTLTVSS VL: DVVMTQTPKFLLVSAGDRVTITCKASQSVSNDVAWYQQKPGQSPKLLIYYASYRYTGVPDRFTGSGYGTDFTFTISAVQAEDLAVYFCQQNYNSPYTFGGGTKLEIK", "values": [{"measurement": "Kd", "result": 0.582, "unit": "nM"}]}
